In article PMC9442473, “Centriole growth is limited by the Cdk/Cyclin-dependent phosphorylation of Ana2/STIL” (The Journal of Cell Biology, 2022):

Molecular target: the molecule itself
Experiment: fluorescence correlation spectroscopy (FCS), photon-count rate per molecule (CPM); point FCS in the cytoplasm of living syncytial embryos at the beginning of nuclear cycle 12, 25.0-26.0°C; CPM compared with monomeric (mNG) and dimeric (dNG) NeonGreen controls

| Protein | stoichiometry N |
| --- | --- |
| Ana2-mNG (natural protein, Drosophila melanogaster, UniProt Q9XZ31 1-420, looked up, Ana2 (fly homologue of STIL), Drosophila melanogaster; mNG with a short linker knocked in at the C-terminus of the endogenous locus; The protein appeared overexpressed about 2-4X against the untagged one; also called Ana2/STIL; WT Ana2-mNG; source: CRISPR/Cas9 knock-in at the endogenous locus, in the cytoplasm of living Drosophila syncytial embryos; not shown: mNeonGreen (mNG), C-terminal, kept) MFVPETEDMLPRLAPRPSAAVPMGHTNEIIGPTVPEVSILFGQPPQDPQMQPQQPNHAHQESSPRAAPTFASWKKQMLPRVNFSPILATELGPRTAPSSNSPCSSKEYQVMPRDRNYASDAQQTTNHMNCNAGGYNAEPKQQAYQSRRLSSSSNADVLTICAGTQTDPFNPSPPRKSLPQVVYSDIDVSNLANKSDLAALVSLVESVRHEQQQLRNLCEMILEQQQRAKPEAISKASSTTGTQCDILTTNQAGRRLSPIMQDYIAEEEEPLPPPQARVIPQFPSPRPHPPIAQSTGYRANTPQAKRIPQLAKPNTEKSMVMNELALKYLRQPVDELMKDMRLGASPKSPNPEPLRPIDNIGHAQSPNDISNASYKYLKKYRLLPEEQLEPVCPQSPMAATAPSPHIQLDLENIRNQPKLL | ~2 |
| mNG-Ana2 (natural protein, Drosophila melanogaster, UniProt Q9XZ31 1-420, looked up, Ana2 (fly homologue of STIL), Drosophila melanogaster; mNG with a short linker knocked in at the N-terminus of the endogenous locus; also called Ana2/STIL; source: CRISPR/Cas9 knock-in at the endogenous locus, in the cytoplasm of living Drosophila syncytial embryos; not shown: mNeonGreen (mNG), N-terminal, kept) MFVPETEDMLPRLAPRPSAAVPMGHTNEIIGPTVPEVSILFGQPPQDPQMQPQQPNHAHQESSPRAAPTFASWKKQMLPRVNFSPILATELGPRTAPSSNSPCSSKEYQVMPRDRNYASDAQQTTNHMNCNAGGYNAEPKQQAYQSRRLSSSSNADVLTICAGTQTDPFNPSPPRKSLPQVVYSDIDVSNLANKSDLAALVSLVESVRHEQQQLRNLCEMILEQQQRAKPEAISKASSTTGTQCDILTTNQAGRRLSPIMQDYIAEEEEPLPPPQARVIPQFPSPRPHPPIAQSTGYRANTPQAKRIPQLAKPNTEKSMVMNELALKYLRQPVDELMKDMRLGASPKSPNPEPLRPIDNIGHAQSPNDISNASYKYLKKYRLLPEEQLEPVCPQSPMAATAPSPHIQLDLENIRNQPKLL | ~2 |
